Like-named read-outs stand apart in the source and are kept apart here.

The test system of data set [1] is embolic middle cerebral artery occlusion (eMCAO).
Procedure: Nerinetide (7.6 mg/kg) was administered as an intravenous bolus injection either 30 minutes before, or simultaneously with, the onset of a 60-minute infusion of rt-PA (5.4 mg/kg with a 10% bolus followed by 90% over 60 minutes). […] Experimental timeline. […] Hemispheric Infarct volume measurements 24 hours after eMCAo. […] Percentage of hemispheric brain swelling 24 hours after eMCAo and (D). Neurological scores 24 hours after eMCAo. Treatments were administered intravenously at the times indicated in (A). Bars represent mean±SD, with all individual data points plotted. Significant differences (in B) and (in C) are indicated with an asterisk when compared to the control group/nerinetide alone or with a number sign when compare to the thrombolytic agent (one-way ANOVA post hoc Tukey's correction for multiple comparisons test, *P<0.01 or #P <0.01, respectively) N=12-15 animals/group. Significant differences (in D) are indicated with an asterisk when compared to the control group/nerinetide alone or with a number sign when compare to the thrombolytic agent (Kruskal-Wallis analysis of variance on ranks with a post-hoc Dunn's correction for multiple comparisons test, *P<0.01 or #P<0.01, respectively).
To test this, male Sprague-Dawley rats (10-12 weeks old; 270-310 g; Charles River, Montreal, QC, Canada) were subjected to embolic middle cerebral artery occlusion (eMCAO), produced by the introduction of an autologous blood thrombus into the middle cerebral artery. Reperfusion was achieved by treatment with intravenous alteplase at a total dose of 5.4 mg/kg beginning at 90 minutes after ischemia onset. Alteplase was administered using the human injection protocol in which 10% of the total dose is given as a bolus, with the remainder 90% of the dose being given over a 60-minute infusion. The dose of alteplase was 6 times the human dose, in anticipation that the rat fibrinolytic system may be less sensitive to human recombinant tPA. […] Nerinetide was administered either 30 minutes prior to, or concurrently with, the start of the alteplase administration (FIG. 7A) at a dose of 7.6 mg/kg. […] Infarct volumes, hemispheric swelling and neurological scores were evaluated at 24 hours.
The conditions of data set [2]: cited from earlier work.

For alteplase [reference compound], the “reduction of infarction volume” value in data set [1] (alteplase alone 5.4 mg/kg given at 60 min after eMCAO) is on record as 26%; in data set [1] (alteplase alone 5.4 mg/kg given at 90 minutes after eMCAO) it was 18%. In data set [1] (rat, alteplase 10x human dose, hemorrhagic conversions of strokes), the “mortality in pilot studies” value is given as “unacceptable mortality rates”. Besides, the “plasma half-life in human plasma” value in data set [2] (in vivo) was “about five”.
For plasmin, the “cleavage of nerinetide by plasmin, LC/MS of fragments after incubation in PBS at 37 C” value in the data set with Tat-NR2B9c was “Cleavage products consistent with these sites of cleavage were observed after incubating nerinetide (18 mg/mL) with plasmin (1 mg/mL) in phosphate-buffered saline at 37 °C and analyzing the samples by LC/MS”.

B1: Plasmin: serine protease activated by thrombolytics to dissolve fibrin blood clots; cleaves nerinetide (protein, UniProt P00747 20-580; P00747 581-810, looked up)
Plasmin heavy chain A: EPLDDYVNTQGASLFSVTKKQLGAGSIEECAAKCEEDEEFTCRAFQYHSKEQQCVIMAENRKSSIIIRMRDVVLFEKKVYLSECKTGNGKNYRGTMSKTKNGITCQKWSSTSPHRPRFSPATHPSEGLEENYCRNPDNDPQGPWCYTTDPEKRYDYCDILECEEECMHCSGENYDGKISKTMSGLECQAWDSQSPHAHGYIPSKFPNKNLKKNYCRNPDRELRPWCFTTDPNKRWELCDIPRCTTPPPSSGPTYQCLKGTGENYRGNVAVTVSGHTCQHWSAQTPHTHNRTPENFPCKNLDENYCRNPDGKRAPWCHTTNSQVRWEYCKIPSCDSSPVSTEQLAPTAPPELTPVVQDCYHGDGQSYRGTSSTTTTGKKCQSWSSMTPHRHQKTPENYPNAGLTMNYCRNPDADKGPWCFTTDPSVRWEYCNLKKCSGTEASVVAPPPVVLLPDVETPSEEDCMFGNGKGYRGKRATTVTGTPCQDWAAQEPHRHSIFTPETNPRAGLEKNYCRNPDGDVGGPWCYTTNPRKLYDYCDVPQCAAPSFDCGKPQVEPKKCPGR
Plasmin light chain B: VVGGCVAHPHSWPWQVSLRTRFGMHFCGGTLISPEWVLTAAHCLEKSPRPSSYKVILGAHQEVNLEPHVQEIEVSRLFLEPTRKDIALLKLSSPAVITDKVIPACLPSPNYVVADRTECFITGWGETQGTFGAGLLKEAQLPVIENKVCNRYEFLNGRVQSTELCAGHLAGGTDSCQGDSGGPLVCFEKDKYILQGVTSWGLGCARPNKPGVYVRVSRFVTWIEGVMRNN
modifications: Plasmin
notes: cleaves nerinetide
In the case of B1, in data set [2] (has been reported), the “half-life in human plasma” value was 4 to 8 h.

These data come from patent publication US20230285504A1, “INHIBITION OF REPERFUSION INJURY WITH A PSD-95 INHIBITOR” (NONO INC., priority 2020, published 2023).
